This is an account of results in patent publication US8221773B2, “Hydrogels and uses thereof” (University of Delaware, priority 2004, dated 2012).

“Also recorded” adds a separate entry of the source. Where no end group is shown, it is not given here.

Data set [1] is described as follows: Oscillatory rheology of peptide hydrogels (storage and loss moduli). It counts as physicochemical. The conditions noted are these: 2 wt %, pH 9, 20° C, 6 Hz, 1% strain.
Data set [2] concerns NIH 3T3 fibroblasts. The data set is described as follows: 3H thymidine cell seeding / proliferation assay. It counts as cell-based, mouse. As to conditions: 2 wt. % hydrogel, 48 hours. From the text: A quantitative assay that could be used to measure the rate of cell proliferation was developed. This allows gels having different material properties and constituent peptide sequences to be compared in terms of how well they support proliferation. Standard colorimetric assays such as the MTT and XTT have proven unsuitable for use with hydrogels of the invention. These assays rely on the ability of cells to metabolize tetrazolium derivatives to their corresponding colored formazan analogs. The analogs permeate into the hairpin hydrogel and become immobilized making subsequent quantification by UV spectroscopy unreliable. This problem has been addressed by utilizing ^3H thymidine-based assays in which thymidine is incorporated into proliferating cells undergoing DNA replication. […] The assay is two-fold. […] Second, a proliferation rate may be determined for a given material by seeding the cells (at optimal density) onto the material and determining the number of cells undergoing DNA replication at discrete time points up to 48 hours when confluency is reached. […] Unincorporated thymidine may be washed out (washes may be assayed until ^3H thymidine is no longer detected) and the cells sacrificed for scintillation counting. […] Therefore, for each new material, similar cell seeding experiments may be performed before rates of proliferation are determined. […]

The nature of data set [3]: Oscillatory rheology of peptide hydrogels (storage and loss moduli). It counts as physicochemical. From the text: (gel storage modulus of ˜600 Pa). Gel formation continued to mature after two hours with a doubling of the gel modulus to ~1200 Pa. An equilibrium storage modulus of ~1600 Pa was reached after several hours of gel formation. This equilibrium behavior is clearly shown by the linear, frequency independent moduli measurements in FIG. 6B. For comparison, the storage modulus of strawberry gelatin is ˜50 Pa (data not shown).
In FIG. 6D, a time sweep experiment identical to that performed during the original gel formation was run immediately after the application of 1000% strain at 6 Hz for 180 seconds. The initial modulus of the reforming gel was 650 Pa with 80% of the equilibrium modulus recovered after only 30 minutes making this a quick recovering and relatively strong hydrogel. For comparison, a 2 wt % gelatin hydrogel takes over 4 h to recover 80% of its equilibrium modulus after shear thinning.
Rheology: Dynamic time and frequency sweep experiments were performed in a strain controlled Rheometrics ARES rheometer with 25.0 mm diameter parallel plate geometry and 0.5 mm gap distance. Lyophilized peptide was dissolved in de-ionized water and buffer or cell growth media solution at 10° C. in order to suppress folding and gelation before the sample is loaded into the rheometer. After the sample was loaded, temperature was increased to either 20° C. or 37° C. Standard low viscosity mineral oil was used to insulate the sides of the plate in order to suppress evaporation. […] Strain sweep experiments were performed to determine the linear viscoelastic regime in which all rheological experiments were performed. Dynamic time sweep experiments were performed with a frequency and strain of 6 rad/s and 1%, respectively. Frequency sweep experiments were performed with a frequency and strain of 0.1-100 rad/s and 5%, respectively.

The mark [4] stands for this setting: 2 wt %, pH 7.4, 20 mM NaCl, 20° C.
[5] abbreviates: 2 wt %, pH 9, 1000% strain at 6 Hz for 180 s (FIG. 6D legend).
Setting [6] is: 2 wt %, serum free DMEM cell growth media, 37° C.

“VKVKVKVK V^DPPT KVKVKVKV-NH2 (not fully specified (C-terminus)) [MAX1]”: in data set [1], the “gel storage modulus after 30 minutes” value is listed as around 600 Pa. Also, the “optimal cell seeding density for 2 day proliferation assays” value in data set [2] is recorded as 40,000 fibroblasts. Besides, in data set [2] (3H thymidine counts), the “cell proliferation on hydrogel versus tissue culture polystyrene control” value is reported as “more cells have grown on the hydrogel than on the control surface; also recorded: higher than the control”. In addition, the “rate of self-assembly leading to a rheological response, compared to MAX4” value in data set [3] (1 wt % preparations, 40° C, pH 9.0, 125 mM Borate, 10 mM NaCl) is “faster”. Also, the “G′ values (frequency sweep)” value in data set [3] (2 wt %, cell growth media, 37° C) was around 2500 Pa. The “G′ recovered instantaneously after cessation of shear, of initial value” in data set [3] (2 wt %, cell growth media, 37° C, after 1000% strain at 6 rad/s) is around 50%. Further, the “hydrogel rigidity (storage modulus)” value in data set [3] (2 wt %, pH 7, NaCl final concentration 150 mM, data not shown) is on record as 3000 Pa. In data set [3] (setting [4]), the “G′ during lag time” value is listed as 2-3 Pa and the “lag time before G′ increases” value stood at 3000 s. Besides, the “storage modulus (G′)” value in data set [3] (2 wt %, pH 7.4, 20 mM NaCl, 20° C, after 2.5 hr gelation) is around 100 Pa. Besides, the “lag time before G′ increases” value in data set [3] (2 wt %, pH 7.4, 150 mM NaCl, 20° C) was around 1000 s. Moreover, the “time of gelation to a material of useful rigidity” value in data set [3] (2 wt %, pH 7.4, 150 mM NaCl, 37° C) was “about 10 minutes”. In data set [3] (2 wt %, pH 7.4, 150 mM NaCl, 37° C, after 2.5 hours gelation), the “G′ value (frequency sweep)” value is given as “around 2000 Pa”. Moreover, the “lag time before G′ increases” value in data set [3] (2 wt %, pH 7.4, 400 mM NaCl, 20° C) is “does not exist”. The “equilibrium storage modulus (G′)” value in data set [3] (2 wt %, pH 7.4, 400 mM NaCl, 20° C, after 2.5 hr gelation) is around 3000 Pa. For the same sequence, in data set [3] (setting [5]), the “former rigidity regained immediately after large strain” value is around 75% and the “time to regain prestrain rigidity” value fell in the range of 10 to 20 min. Further, the “equilibrium modulus recovered after 30 minutes” value in data set [3] (2 wt %, pH 9, after 1000% strain at 6 Hz for 180 seconds) came to 80%. In addition, the “initial modulus of the reforming gel” value in data set [3] (2 wt %, pH 9, immediately after 1000% strain at 6 Hz for 180 seconds) came to 650 Pa. Also, the “storage moduli (rigidity) of gels prepared by protocol 1” value in data set [3] (2 wt %, pH 9 borate buffer trigger, then bathed in DMEM with 10% calf serum) is recorded as “about 1600 Pa”. In data set [3] (setting [6]), the “G′ at the end of 2 hours of gelation” value amounted to 2300 Pa and the “G″ at the end of 2 hours of gelation” value came to 50 Pa. In data set [3] (pH 7.4 without added NaCl, after 3 hours, no gelation), the “G′ values” is “approximately 1 Pa”. In addition, in data set [3] (pH 9), the “crossover concentration separating liquid-like (G″>G′) and gel-like (G′>G″) response” value is reported as “about 1 wt %”.
